Experiments:
EPHB1 = EPHB1 (UniProt P54762); assay: phosphorylation enrichment, bacterial display (enrichment ratio); higher = better substrate or ligand; peptides without Tyr show the background
Fes = Fes (UniProt P07332); assay: as above
c-Src = assay: as above
FGFR3 = FGFR3 (UniProt P22607); assay: as above
Fer (mouse) = assay: as above
Jak2 = Jak2 (UniProt O60674); assay: as above
Fyn = Fyn (UniProt P06241); assay: as above
MERTK = MERTK (UniProt Q12866); assay: as above
FGFR1 = FGFR1 (UniProt P11362); assay: as above
c-Abl (mouse) = assay: as above
EPHB2 = EPHB2 (UniProt P29323); assay: as above
Sequence of EPHB2 (P29323 whole entry, looked up): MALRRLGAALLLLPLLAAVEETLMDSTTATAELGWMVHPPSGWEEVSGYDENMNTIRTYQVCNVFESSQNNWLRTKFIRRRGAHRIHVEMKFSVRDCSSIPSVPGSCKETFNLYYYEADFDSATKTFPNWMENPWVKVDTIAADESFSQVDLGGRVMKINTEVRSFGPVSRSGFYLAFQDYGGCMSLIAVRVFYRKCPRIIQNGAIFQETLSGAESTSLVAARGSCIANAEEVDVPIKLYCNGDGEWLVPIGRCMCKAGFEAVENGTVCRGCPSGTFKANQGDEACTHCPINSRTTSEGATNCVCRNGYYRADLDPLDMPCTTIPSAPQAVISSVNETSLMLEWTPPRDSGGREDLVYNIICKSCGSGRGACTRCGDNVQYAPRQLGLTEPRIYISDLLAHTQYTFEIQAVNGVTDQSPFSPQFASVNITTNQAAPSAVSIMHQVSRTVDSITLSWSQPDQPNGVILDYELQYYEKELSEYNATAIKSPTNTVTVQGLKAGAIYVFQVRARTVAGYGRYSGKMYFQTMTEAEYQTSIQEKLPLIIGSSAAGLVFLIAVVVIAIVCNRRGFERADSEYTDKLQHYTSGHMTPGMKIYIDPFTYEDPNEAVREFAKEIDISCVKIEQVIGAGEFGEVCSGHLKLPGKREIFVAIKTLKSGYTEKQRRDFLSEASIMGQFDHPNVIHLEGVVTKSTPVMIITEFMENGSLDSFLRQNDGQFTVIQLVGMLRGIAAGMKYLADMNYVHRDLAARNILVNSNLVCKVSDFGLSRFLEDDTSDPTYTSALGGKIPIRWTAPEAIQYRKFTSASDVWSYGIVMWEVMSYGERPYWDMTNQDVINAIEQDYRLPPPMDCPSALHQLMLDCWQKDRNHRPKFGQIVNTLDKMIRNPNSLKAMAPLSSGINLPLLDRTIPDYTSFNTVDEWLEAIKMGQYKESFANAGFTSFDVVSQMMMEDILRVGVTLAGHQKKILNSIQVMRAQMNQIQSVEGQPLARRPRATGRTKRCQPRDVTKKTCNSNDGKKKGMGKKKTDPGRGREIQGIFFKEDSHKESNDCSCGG

AncSZ = assay: as above
Hck = Hck (UniProt P08631); assay: as above
Grb2 SH2 = Grb2 SH2 (UniProt P62993); assay: SH2 binding enrichment of the phosphorylated peptide, bacterial display (enrichment ratio); higher = better substrate or ligand; peptides without Tyr show the background
c-Src SH2 = assay: as above
SHP2-C SH2 = assay: as above
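Wherever SH2 binding enrichment of the phosphorylated peptide, bacterial display is given: peptide library displayed on the E. coli surface as eCPX fusions, selected cells deep-sequenced, score is each peptide's frequency after selection divided by its frequency in the input.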
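Wherever phosphorylation enrichment, bacterial display is given: 11-residue human phosphosite peptides and single-mutation variants displayed on the E. coli surface, counted by deep sequencing, each peptide's frequency after selection divided by its frequency in the unselected input library; frequency after pTyr selection over input frequency; kinase dosed for 20-30% of maximal phosphorylation in three min.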

Sequence of EPHB1 (P54762 whole entry, looked up): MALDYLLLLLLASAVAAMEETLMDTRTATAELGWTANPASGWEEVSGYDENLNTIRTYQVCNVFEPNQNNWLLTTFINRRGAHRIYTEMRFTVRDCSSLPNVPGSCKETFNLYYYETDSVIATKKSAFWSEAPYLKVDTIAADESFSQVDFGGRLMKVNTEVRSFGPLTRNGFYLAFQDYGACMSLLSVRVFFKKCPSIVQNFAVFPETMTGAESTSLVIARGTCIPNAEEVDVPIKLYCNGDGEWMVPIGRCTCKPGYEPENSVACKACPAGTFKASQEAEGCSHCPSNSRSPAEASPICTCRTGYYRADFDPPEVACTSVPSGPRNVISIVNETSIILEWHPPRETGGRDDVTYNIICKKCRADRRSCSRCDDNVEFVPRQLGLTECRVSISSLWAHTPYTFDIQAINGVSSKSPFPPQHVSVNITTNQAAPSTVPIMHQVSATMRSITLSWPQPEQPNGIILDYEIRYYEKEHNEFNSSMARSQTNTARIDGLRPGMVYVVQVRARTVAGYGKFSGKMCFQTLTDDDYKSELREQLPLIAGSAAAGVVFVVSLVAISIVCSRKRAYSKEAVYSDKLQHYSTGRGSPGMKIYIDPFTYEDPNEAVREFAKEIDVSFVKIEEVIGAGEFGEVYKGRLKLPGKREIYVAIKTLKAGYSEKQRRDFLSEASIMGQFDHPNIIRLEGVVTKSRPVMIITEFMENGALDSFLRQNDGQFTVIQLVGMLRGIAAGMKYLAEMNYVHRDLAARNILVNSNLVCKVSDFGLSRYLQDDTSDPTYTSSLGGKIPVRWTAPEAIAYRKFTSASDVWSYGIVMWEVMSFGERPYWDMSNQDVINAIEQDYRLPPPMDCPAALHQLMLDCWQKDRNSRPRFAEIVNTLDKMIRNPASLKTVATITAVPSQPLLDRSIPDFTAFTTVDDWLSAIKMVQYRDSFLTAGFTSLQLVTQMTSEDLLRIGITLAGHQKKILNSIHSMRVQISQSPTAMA
Sequence of Fes (P07332 whole entry, looked up): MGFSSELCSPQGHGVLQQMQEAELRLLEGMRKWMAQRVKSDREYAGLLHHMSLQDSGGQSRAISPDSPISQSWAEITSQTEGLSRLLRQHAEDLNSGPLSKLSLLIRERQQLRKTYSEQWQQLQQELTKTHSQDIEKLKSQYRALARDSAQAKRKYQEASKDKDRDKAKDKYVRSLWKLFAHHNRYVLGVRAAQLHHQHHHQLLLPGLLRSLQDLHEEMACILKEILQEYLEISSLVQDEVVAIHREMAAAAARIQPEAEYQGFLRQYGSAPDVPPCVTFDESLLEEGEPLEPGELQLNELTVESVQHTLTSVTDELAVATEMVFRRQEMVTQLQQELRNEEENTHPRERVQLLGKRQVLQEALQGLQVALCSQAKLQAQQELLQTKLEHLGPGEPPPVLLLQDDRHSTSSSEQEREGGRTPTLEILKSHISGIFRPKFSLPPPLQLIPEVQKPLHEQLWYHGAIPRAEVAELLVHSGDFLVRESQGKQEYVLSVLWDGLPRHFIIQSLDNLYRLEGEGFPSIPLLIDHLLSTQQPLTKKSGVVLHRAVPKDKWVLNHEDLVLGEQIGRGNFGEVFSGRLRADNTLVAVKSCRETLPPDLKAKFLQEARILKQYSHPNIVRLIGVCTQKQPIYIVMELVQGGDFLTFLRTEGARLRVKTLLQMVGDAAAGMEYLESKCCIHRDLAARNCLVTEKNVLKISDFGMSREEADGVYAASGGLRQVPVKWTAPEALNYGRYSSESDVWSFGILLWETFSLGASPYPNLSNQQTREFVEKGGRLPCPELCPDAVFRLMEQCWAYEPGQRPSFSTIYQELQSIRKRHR
Sequence of FGFR3 (P22607 whole entry, looked up): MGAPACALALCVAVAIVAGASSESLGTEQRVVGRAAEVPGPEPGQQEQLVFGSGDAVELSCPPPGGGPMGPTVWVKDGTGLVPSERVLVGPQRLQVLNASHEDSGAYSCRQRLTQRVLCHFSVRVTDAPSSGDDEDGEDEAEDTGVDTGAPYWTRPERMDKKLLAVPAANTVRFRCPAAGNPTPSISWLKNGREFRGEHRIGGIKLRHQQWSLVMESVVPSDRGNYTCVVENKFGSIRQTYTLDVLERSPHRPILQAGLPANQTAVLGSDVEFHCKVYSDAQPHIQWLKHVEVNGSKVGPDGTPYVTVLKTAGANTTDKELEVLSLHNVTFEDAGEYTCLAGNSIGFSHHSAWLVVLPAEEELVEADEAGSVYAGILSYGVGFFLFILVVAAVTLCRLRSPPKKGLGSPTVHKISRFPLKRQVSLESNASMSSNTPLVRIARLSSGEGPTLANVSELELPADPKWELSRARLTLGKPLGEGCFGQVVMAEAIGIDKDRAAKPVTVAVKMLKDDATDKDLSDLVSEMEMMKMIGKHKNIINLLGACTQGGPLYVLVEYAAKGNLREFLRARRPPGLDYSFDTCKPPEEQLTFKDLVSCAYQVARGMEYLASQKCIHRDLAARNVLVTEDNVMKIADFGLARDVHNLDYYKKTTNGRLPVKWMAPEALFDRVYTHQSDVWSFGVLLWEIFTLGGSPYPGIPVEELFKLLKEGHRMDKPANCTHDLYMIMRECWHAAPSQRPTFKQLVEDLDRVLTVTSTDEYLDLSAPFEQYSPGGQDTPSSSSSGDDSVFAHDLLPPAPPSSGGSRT
Sequence of Jak2 (O60674 whole entry, looked up): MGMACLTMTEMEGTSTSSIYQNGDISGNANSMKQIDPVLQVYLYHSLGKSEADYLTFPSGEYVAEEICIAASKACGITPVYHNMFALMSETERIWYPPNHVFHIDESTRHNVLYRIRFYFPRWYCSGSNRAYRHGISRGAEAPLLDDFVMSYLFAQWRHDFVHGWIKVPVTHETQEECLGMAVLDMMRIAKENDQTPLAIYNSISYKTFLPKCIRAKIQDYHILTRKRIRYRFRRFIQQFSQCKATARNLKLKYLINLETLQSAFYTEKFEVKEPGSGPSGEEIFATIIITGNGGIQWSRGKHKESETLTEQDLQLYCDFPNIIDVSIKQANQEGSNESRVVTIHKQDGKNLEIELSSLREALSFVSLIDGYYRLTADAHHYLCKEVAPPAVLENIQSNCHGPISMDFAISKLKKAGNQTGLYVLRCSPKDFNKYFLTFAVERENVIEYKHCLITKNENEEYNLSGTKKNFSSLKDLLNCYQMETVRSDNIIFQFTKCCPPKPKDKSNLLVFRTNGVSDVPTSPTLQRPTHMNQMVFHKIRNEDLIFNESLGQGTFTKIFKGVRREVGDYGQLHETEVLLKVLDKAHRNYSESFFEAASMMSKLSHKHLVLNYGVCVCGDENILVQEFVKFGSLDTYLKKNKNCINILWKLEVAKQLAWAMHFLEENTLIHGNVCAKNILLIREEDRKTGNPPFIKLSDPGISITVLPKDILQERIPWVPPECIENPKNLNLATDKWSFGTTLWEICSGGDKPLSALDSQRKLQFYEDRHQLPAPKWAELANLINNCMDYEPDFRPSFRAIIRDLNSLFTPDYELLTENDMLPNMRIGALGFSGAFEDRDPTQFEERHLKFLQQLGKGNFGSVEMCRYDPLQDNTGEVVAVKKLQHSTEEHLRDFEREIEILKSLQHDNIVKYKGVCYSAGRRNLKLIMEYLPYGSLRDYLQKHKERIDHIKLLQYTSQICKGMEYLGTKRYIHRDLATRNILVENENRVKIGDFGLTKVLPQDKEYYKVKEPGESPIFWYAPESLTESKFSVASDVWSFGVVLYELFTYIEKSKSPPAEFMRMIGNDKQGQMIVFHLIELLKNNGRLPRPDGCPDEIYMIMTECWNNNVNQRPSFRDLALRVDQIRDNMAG

Sequence	SH2 binding enrichment (Grb2 SH2)	SH2 binding enrichment (c-Src SH2)	SH2 binding enrichment (SHP2-C SH2)	phosphorylation enrichment (EPHB1)	phosphorylation enrichment (Fes)	phosphorylation enrichment (c-Src)	phosphorylation enrichment (FGFR3)	phosphorylation enrichment (Fer (mouse))	phosphorylation enrichment (Jak2)	phosphorylation enrichment (Fyn)	phosphorylation enrichment (MERTK)	phosphorylation enrichment (FGFR1)	phosphorylation enrichment (c-Abl (mouse))	phosphorylation enrichment (EPHB2)	phosphorylation enrichment (AncSZ)	phosphorylation enrichment (Hck)
CATIHYNFMCN [TP53_Y234_T230A_YF]	1.37	2.23	1.51	0.68	0.944	0.525	0.596	0.602	0.903	0.478	0.497	0.634	0.757	0.52	0.993	0.577
CEQELYSQLVF [WAS_Y102_W97C_YF]	0.933	0.515	0.553	1.84	1.44	5.87	1.79	10.7	1.24	6.89	6.07	1.66	0.987	2.2	1.59	6.76
CGPLLYGLVHQ [PRKCG_Y122_S119P]	0.815	0.517	0.881	2.72	1.16	4.08	0.723	8.22	1.06	3.72	4.98	0.593	0.73	4.12	0.884	4.88
CGQDPYIRELG [UROS_Y19]	0.731	0.563	0.492	0.674	1.27	0.433	0.707	0.534	0.971	0.535	0.427	0.497	0.877	0.53	1.05	0.569
CGTPDNIAPEI [PRKCG_Y521_Y521N]	0.777	0.485	0.533	0.72	1.49	0.458	0.933	0.548	0.989	0.593	0.459	0.51	0.782	0.762	1.17	0.609
CKRQFYLFKGK [RSPO4_Y112_YF]	1.28	1.07	1.05	0.385	1.01	0.377	0.591	0.403	0.745	0.431	0.489	0.446	0.497	0.546	0.863	0.4
CLNAIYQNNLT [GSR_Y158_R153C]	4.11	0.807	0.67	0.622	0.996	1.41	0.722	3.44	0.744	0.995	0.563	0.479	0.759	0.636	0.991	1.53
CPYNLYAEQFS [HGD_Y40_L44F]	0.855	0.706	0.645	4.18	1.16	6.06	0.973	2.09	0.989	3.86	3.9	0.877	0.72	3.18	1.46	3
CSSGGYEPRGR [FUS_Y239_R234C]	0.887	0.472	0.654	0.411	0.861	0.353	0.547	0.475	0.594	0.411	0.396	0.432	0.528	0.439	0.801	0.436
CTTIDYNYMCN [TP53_Y234_H233D]	0.768	1.34	1	0.715	0.93	0.488	0.831	0.464	0.838	0.558	0.449	0.957	0.682	0.643	1.3	0.598
CTTIHHNFMCN [TP53_Y234_Y234H_YF]	1.36	1.36	0.933	0.482	0.844	0.362	0.641	0.483	0.606	0.453	0.377	0.525	0.478	0.51	0.713	0.436
CTTIHYNYMWN [TP53_Y234_C238W]	1.11	0.874	1.18	1.12	1.32	0.496	0.976	1.77	0.966	0.569	1.82	1.21	0.824	0.746	1.21	0.544
DDFDLYGGEKF [PTPN11_Y66_Y62D_YF]	0.569	0.426	0.545	0.639	1.38	2.14	0.727	1.72	1.2	2.27	0.475	0.585	0.731	0.659	1.28	3.11
DGTESYHTVSS [PLK1_Y462_L463H]	0.769	1.61	0.755	0.342	0.682	0.423	0.872	0.348	0.52	0.433	0.299	0.558	0.552	0.514	0.569	0.436
DIDKIYVRTGI [PIK3CA_Y355]	0.864	0.539	0.757	0.697	0.934	0.528	0.772	0.525	0.878	0.458	0.33	0.518	0.713	0.593	0.975	0.529

Second part, led by results:

SH2 binding enrichment (Grb2 SH2)	SH2 binding enrichment (c-Src SH2)	SH2 binding enrichment (SHP2-C SH2)	Sequence	phosphorylation enrichment (EPHB1)	phosphorylation enrichment (Fes)	phosphorylation enrichment (c-Src)	phosphorylation enrichment (FGFR3)	phosphorylation enrichment (Fer (mouse))	phosphorylation enrichment (Jak2)	phosphorylation enrichment (Fyn)	phosphorylation enrichment (MERTK)	phosphorylation enrichment (FGFR1)	phosphorylation enrichment (c-Abl (mouse))	phosphorylation enrichment (EPHB2)	phosphorylation enrichment (AncSZ)	phosphorylation enrichment (Hck)
0.59	0.4	0.556	CDDGKYVFVVT [RPS6KA3_Y488_Y483C_YF]	0.604	1.43	0.412	0.919	0.683	1.11	0.444	0.437	0.574	0.862	0.719	1.23	0.508
0.961	1.24	0.661	CEHFSYYGMKA [SLC15A2_Y60_R57H]	0.52	0.933	2.37	3.17	0.812	5.02	0.866	1.54	5.26	0.708	0.644	1.06	1.93
0.989	0.567	0.672	CEHRGSLFLAI [TEK_Y897_Y897S_YF]	0.55	1.16	0.457	0.725	0.533	1.04	0.427	0.422	0.501	0.944	0.564	1.03	0.457
0.888	0.556	0.682	CRIELYRIVES [IGFBP1_Y181_V183I]	1.82	1.49	0.53	0.837	0.579	1.28	0.455	0.451	0.422	0.991	0.616	1.21	0.548
0.882	0.515	0.666	CSDPSYVKQME [CDC5L_Y464_Y459C]	0.703	1.38	0.488	0.931	0.661	1.13	0.467	0.493	0.488	0.849	0.626	1.22	0.492
0.7	0.414	0.549	CSEEMYRLMLQ [RET_Y981]	0.695	1.41	0.643	0.853	0.619	1.5	0.606	0.573	0.921	0.947	0.664	1.4	0.666
1.05	5.66	1.86	CTNIHYNYMCN [TP53_Y234_T231N]	0.734	0.82	0.408	0.62	0.522	0.799	0.464	0.418	0.468	1.62	0.537	0.754	0.437
1.2	6.1	2.73	CTTIHYDFMCN [TP53_Y234_N235D_YF]	0.681	1.03	0.545	0.764	1.05	0.873	0.644	0.49	0.544	0.704	0.514	1.16	0.656
0.894	0.553	0.883	CTTIHYFFMCN [TP53_Y234_N235Y_YF]	0.515	0.982	0.279	0.635	0.384	1.07	0.424	0.309	0.413	0.662	0.534	0.966	0.37
1.93	2.28	2.12	CTTIHYNFLCN [TP53_Y234_M237L_YF]	0.54	0.941	0.499	0.674	0.554	0.623	0.531	0.435	0.556	0.585	0.576	0.873	0.469
0.802	11	2.42	CTTNHYNYMCN [TP53_Y234_I232N]	0.682	0.712	0.373	0.526	0.489	0.593	0.382	0.398	0.479	0.495	0.483	0.725	0.415
0.938	0.579	0.613	DDDPEDRKFLE [UPF3B_Y160_Y160D]	0.586	1.24	0.503	0.641	0.56	1.17	0.56	0.541	0.51	0.867	0.501	1.12	0.594
0.674	0.442	0.544	DEGVNYFMSKG [FBXO8_Y156]	0.457	0.984	0.388	0.926	0.402	0.996	0.422	0.39	0.862	0.705	0.685	1.1	0.456
1.05	1.21	4.04	DFLSSYSAVKQ [OAT_Y85_N89K]	0.516	1.03	0.444	0.445	0.746	0.639	0.466	0.273	0.491	0.46	0.502	1.5	0.429
0.733	0.661	0.47	DGYIDYAEFAK [MCFD2_Y138]	0.639	1	0.912	1	0.407	0.917	0.635	0.455	1.31	0.674	0.579	1.13	0.657
0.56	0.472	0.824	DHYNQYEQQKM [CHD7_Y75]	0.444	0.728	0.478	0.524	0.451	0.782	0.639	0.359	0.438	0.445	0.402	0.844	0.434
0.852	0.403	0.513	DKEKWYPLGTS [PIK3C2G_Y1438_N1442T]	0.544	0.931	0.486	0.642	0.55	0.765	0.505	0.458	0.409	0.591	0.496	0.821	0.44
0.918	0.555	0.752	DKITQYVEEVK [STX2_Y49]	0.507	1.23	0.425	0.78	0.479	0.876	0.509	0.505	0.552	0.698	0.581	1.11	0.421
